Laboratory results reported in paper PMC2100151.

Target: Human ASK1 catalytic (kinase) domain, T813A mutant (human) (UniProt Q99683)
Experiment: AUC; sedimentation velocity; 13 μM protein in 10 mM HEPES pH 7.4, 120 mM NaCl, 0.25% glycerol, 4°C, 40,000 rpm; c(s) and c(M) distributions (SEDFIT)

- stoichiometry N: 2
Substance: Human ASK1 catalytic (kinase) domain, T813A mutant (from UniProt Q99683 659-951) (domain or fragment)
